The numbers were not newly measured in paper PMC8405992, which cites them from elsewhere.

Where two headings read alike, the source gives them in different places.

In data set [1] the target is Ubp6 UBL (Saccharomyces cerevisiae) (UniProt P43593).
Data set [2] has as its target Dsk2 UBL (Saccharomyces cerevisiae) (UniProt P48510).
Data set [3] concerns the target Ubp6 UBL (Saccharomyces cerevisiae) (UniProt P43593). The source holds these as a separate data set.
For data set [4], the target named is Dsk2 UBL (Saccharomyces cerevisiae) (UniProt P48510). The source holds these as a separate data set.
Data set [5] addresses Rad23-UBL UBL (Saccharomyces cerevisiae) (UniProt P32628).
The target of data set [6] is Rad23 UBL (Saccharomyces cerevisiae) (UniProt P32628).
Rad23 UBL (Saccharomyces cerevisiae), sequence (P32628 1-77): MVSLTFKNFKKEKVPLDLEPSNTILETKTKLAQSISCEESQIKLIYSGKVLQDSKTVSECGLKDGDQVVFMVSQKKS

Rpn1, sequence (P38764 2-993): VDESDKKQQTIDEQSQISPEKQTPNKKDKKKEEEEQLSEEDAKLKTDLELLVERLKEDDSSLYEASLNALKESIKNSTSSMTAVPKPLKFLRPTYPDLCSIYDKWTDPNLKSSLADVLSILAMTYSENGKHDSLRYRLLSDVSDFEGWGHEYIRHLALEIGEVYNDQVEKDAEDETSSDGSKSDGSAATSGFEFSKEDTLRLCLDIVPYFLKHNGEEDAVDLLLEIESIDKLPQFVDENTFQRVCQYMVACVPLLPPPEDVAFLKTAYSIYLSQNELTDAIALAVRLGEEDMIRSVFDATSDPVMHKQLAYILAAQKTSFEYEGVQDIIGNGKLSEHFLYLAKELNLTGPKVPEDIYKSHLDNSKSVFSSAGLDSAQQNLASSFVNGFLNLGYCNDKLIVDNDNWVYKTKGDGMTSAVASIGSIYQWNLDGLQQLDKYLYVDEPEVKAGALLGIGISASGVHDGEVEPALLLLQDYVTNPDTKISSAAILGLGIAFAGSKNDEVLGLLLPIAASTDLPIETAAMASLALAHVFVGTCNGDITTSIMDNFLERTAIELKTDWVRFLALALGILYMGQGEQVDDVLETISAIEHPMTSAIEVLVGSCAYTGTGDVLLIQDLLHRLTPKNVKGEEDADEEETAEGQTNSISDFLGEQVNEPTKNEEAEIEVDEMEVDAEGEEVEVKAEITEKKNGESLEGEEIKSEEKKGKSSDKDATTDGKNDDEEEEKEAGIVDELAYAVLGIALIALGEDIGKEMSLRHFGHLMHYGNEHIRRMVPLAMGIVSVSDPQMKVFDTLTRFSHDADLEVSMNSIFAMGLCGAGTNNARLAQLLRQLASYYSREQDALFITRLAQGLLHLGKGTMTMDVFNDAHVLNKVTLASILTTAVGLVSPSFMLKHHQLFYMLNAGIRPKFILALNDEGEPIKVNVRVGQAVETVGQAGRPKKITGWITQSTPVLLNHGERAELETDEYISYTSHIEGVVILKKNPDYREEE
Ubp6 UBL (Saccharomyces cerevisiae), sequence (P43593 6-80): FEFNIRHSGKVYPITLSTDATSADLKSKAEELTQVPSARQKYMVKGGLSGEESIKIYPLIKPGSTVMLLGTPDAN
Rpn1 391-642, sequence (P38764 391-642): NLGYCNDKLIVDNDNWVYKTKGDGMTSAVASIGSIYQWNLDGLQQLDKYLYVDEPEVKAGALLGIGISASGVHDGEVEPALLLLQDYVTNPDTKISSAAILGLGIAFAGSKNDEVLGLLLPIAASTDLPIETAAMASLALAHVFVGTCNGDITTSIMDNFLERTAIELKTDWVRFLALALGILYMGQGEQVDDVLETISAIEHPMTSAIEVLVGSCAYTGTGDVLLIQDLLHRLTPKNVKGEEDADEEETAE
Dsk2 UBL (Saccharomyces cerevisiae), sequence (P48510 1-76): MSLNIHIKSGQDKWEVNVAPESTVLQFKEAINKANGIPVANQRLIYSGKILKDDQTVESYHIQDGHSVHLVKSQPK
Rad23-UBL UBL (Saccharomyces cerevisiae), sequence (P32628 1-77): as the sequence (P32628 1-77) above

Broadly, the Kd is the free concentration of one partner at which half of the binding sites on the other are occupied at equilibrium, for simple one-to-one binding. As for Rpn1 391-642 (from UniProt P38764), the Kd in data set [1] is 40 µM; in data set [2], 22 µM.

Turning to Rpn1 (from UniProt P38764), the figures for the dissociation constant (Kd) in data set [3] and in data set [4] were 2 µM and 12 µM, respectively.

In the case of Rpn1 T1 site (from UniProt P38764), the equilibrium dissociation constant (Kd) in data set [5] and in data set [6] was 0.064 µM in each case.
